Laboratory results as given in patent US9962427B2, “Treatment of right ventricular dysfunction due to pressure overload” (OTTAWA HOSPITAL RESEARCH INSTITUTE, priority 2016, dated 2018).

Key:
NF-κB = NF-κB luciferase reporter in primary neonatal cardiomyocytes; assay type: cell-based; conditions: hCT1 0.5 nM
Experimental: FIGS. 6A, 6B, and 6C. Stimulation with hCT1 causes sustained activation of NF-κB and Stat3 with limited activation of Mef2, as well as limited Nfat activation; the latter two indices are distinct expression patterns from pathologic hypertrophic stimulation. FIG. 6A Primary neonatal cardiomyocytes were transfected with luciferase reporter plasmids (NF-κB or Mef2), as indicators of hypertrophic activity. Luciferase activity was measured after treatments for 24 hrs with: hCT1 (0.5 nM), PE (100 μM), or procaspase 3 activating compound 1, PAC-1 (25 μM) (left). Treatments at early timepoints (30 min, 1 hr, and 3 hr) were also conducted for hCT1 (right). FIG. 6B Primary neonatal cardiomyocytes were transfected with a luciferase reporter plasmid for Stat3. Luciferase activity was measured after treatments for 24 hrs with: hCT1 (0.5 nM), PE (100 μM), or procaspase 3 activating compound 1, PAC-1 (25 μM) (left) and at earlier time points (right). […] Luciferase activity was measured after treatments for 24 hrs with: hCT1 (0.5 nM), PE (100 μM), or procaspase 3 activating compound 1, PAC-1 (25 μM) (left) and at earlier time points (right)
The signaling pathways that CT-1 engages in mediating physiologic adaptive compensatory remodeling were examined. […] Primary neonatal cardiomyocytes were transfected with luciferase reporter plasmids (NF-κB and Mef2) to be used as a read out of transcriptional activity. […]

cardiomyocytes = tested on: cardiomyocytes
Experimental: FIG. 7B Quantitation of cell viability analysis as shown in (A). FIG. 7C Quantification of PI cell viability FACS analysis following a 24 hrs treatment of cardiomyocytes with H2O2 in the presence or absence of hCT1. Pre-treatment with PI3K inhibitor (LY294002, 50 μM) before H2O2 was also tested.
Cardiomyocytes were treated with control serum-free media or with H2O2 (300 μM, 1 hr) to induce cell death in the presence or absence of hCT1 (0.5 nM). After 24 hrs, cells were incubated with the cell viability marker Propidium Iodide (PI) (1 μg/mL) and analyzed by FACS (Ex: 535 nm, Em: 617 nm) for viable cells; i.e. cells inside the gated region of the side scatter (SS) versus PI plot (FIG. 7A). […] The PI3K pathway is a critical feature of physiological cardiac adaptive compensation and is a key protective feature distinguishing it from pathological adaptive compensation. Therefore, cardiomyocytes were pre-treated with a PI3K inhibitor (LY294002, 50 μM) before CT-1/H2O2 treatment.

P19 cells = assay: P19 cardiac differentiation (cTnT immunofluorescence, beating clusters, immunoblot); assay type: cell-based, mouse
Experimental: FIG. 9A Schematic for cardiac differentiation of pluripotent P19 cells. FIG. 9B Immunofluorescence results for the cardiac-specific marker Troponin T (cTnT) in P19 cardiac cells at day 7 of differentiation in the presence of varying doses of hCT1 ranging from 0-500 ng/mL (0-25 nM). Quantification of expression of cTnT is shown on the graph. FIG. 9C Quantification of beating clusters in P19 cardiac cells at day 13-15 of differentiation in the presence of varying doses of hCT1. FIG. 9D Immunoblot for the cardiac markers cTnT and GATA4 in whole cell lysates from a P19 cardiac differentiation timecourse in the presence and absence of hCT1.
Protection during conditions of cardiac pathologies can be conferred not only by the activation of pro-survival/pro-angiogenic signaling pathways but also by inducing the differentiation of cardiogenic progenitor cells. […] To test the effect of CT1 on cardiomyocyte differentiation, undifferentiated cells were induced to undergo cardiac differentiation with 0.8% DMSO and aggregation. At day 0, P19 cells are plated onto non-adherent bacterial petri dishes in the presence of MEMα growth media with 0.8% DMSO (control) or in the presence of different doses of hCT1-containing MEMα media ranging from 0.5 nM (10 ng/mL) to 25 nM (500 ng/mL) with 0.8% DMSO. P19 cells are then allowed to aggregate for 4 days. Finally, aggregates are then transferred onto adherent tissue culture dishes in the same media (this time in the absence of DMSO) to allow for subsequent cardiac differentiation (FIG. 9A, adapted from Skerjanc et al. 1999; Trends in Cardiovascular Medicine, volume 9, pages 139-143). The cardiac specific marker Troponin T (cTnT) was used (by immunofluorescence) to identify differentiated cells.
Differentiation was also followed up to day 15 and the number of visually beating clusters was used to assess cardiac differentiation. […]

B1: hCT1: Recombinant human CT1 protein; 201 amino acid sequence, GenBank Accession Nos AAD12173 and AAA85229 (human) (protein, UniProt Q16619 1-201, looked up)
Cardiotrophin-1: MSRREGSLEDPQTDSSVSLLPHLEAKIRQTHSLAHLLTKYAEQLLQEYVQLQGDPFGLPSFSPPRLPVAGLSAPAPSHAGLPVHERLRLDAAALAALPPLLDAVCRRQAELNPRAPRLLRRLEDAARQARALGAAVEALLAALGAANRGPRAEPPAATASAASATGVFPAKVLGLRVCGLYREWLSRTEGDLGQLLPGGSA
- NF-κB luciferase activity at 1 hr and 3 hr (NF-κB): significant activation
- NF-κB transcriptional activity at 24 hrs (NF-κB): sustained
- viability improved vs. H2O2 (cardiomyocytes; H2O2 in the presence of hCT1 (FIG. 7C)): 154%
- increase in viability upon pre-treatment (cardiomyocytes; hCT1 0.5 nM, 1 hour H2O2 300 μM, viability at 24 hours (FIG. 7B)): ~34%
- GATA4 and cTnT expression (immunoblot) (P19 cells; 10 ng/mL (0.5 nM) hCT1, days 5 and 7): significantly inhibited GATA4 and cTnT expression
- differentiation of cardiac cells (cTnT+/DAPI+) (P19 cells; day 7, any dose 0.5 nM to 25 nM): significantly inhibited the differentiation of cardiac cells
- number of beating clusters (P19 cells; days 13, 14, and 15): no beating clusters were detected
